Earlier results, collected in publication PMC5393932.
pKd: −log10 of the molar value.

Target: P-selectin (Homo sapiens) (UniProt P16109)
Chain of UniProt P16109 (P16109 42-771): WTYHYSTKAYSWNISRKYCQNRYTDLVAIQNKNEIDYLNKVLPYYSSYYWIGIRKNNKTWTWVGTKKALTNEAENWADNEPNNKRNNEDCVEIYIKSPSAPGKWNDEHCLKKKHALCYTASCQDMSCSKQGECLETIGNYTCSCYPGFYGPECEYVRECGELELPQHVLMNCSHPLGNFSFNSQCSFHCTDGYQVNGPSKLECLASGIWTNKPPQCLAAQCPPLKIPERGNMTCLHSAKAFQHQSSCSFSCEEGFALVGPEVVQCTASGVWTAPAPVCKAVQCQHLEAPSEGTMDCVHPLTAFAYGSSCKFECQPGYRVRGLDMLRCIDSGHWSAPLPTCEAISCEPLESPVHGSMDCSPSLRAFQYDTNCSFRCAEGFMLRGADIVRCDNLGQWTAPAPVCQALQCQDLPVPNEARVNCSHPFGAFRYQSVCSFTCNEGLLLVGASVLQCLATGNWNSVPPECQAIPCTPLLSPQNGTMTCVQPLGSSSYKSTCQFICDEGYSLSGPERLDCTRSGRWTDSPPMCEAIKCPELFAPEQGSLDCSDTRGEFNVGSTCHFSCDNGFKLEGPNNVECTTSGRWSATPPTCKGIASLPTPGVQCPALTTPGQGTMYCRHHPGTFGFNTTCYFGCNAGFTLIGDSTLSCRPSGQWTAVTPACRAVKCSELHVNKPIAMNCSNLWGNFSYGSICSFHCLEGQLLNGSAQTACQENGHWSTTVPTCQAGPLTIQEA

In the case of PSGL-1 (from UniProt Q14242), the pKd is listed as 7.15.
